# Source: publication PMC12416549 (2024)
# Substitutions are numbered along the chain they refer to. In names and notes the source's numbering stands.
# T1: TNFR1 (Homo sapiens, UniProt P19438)
# T1 chain: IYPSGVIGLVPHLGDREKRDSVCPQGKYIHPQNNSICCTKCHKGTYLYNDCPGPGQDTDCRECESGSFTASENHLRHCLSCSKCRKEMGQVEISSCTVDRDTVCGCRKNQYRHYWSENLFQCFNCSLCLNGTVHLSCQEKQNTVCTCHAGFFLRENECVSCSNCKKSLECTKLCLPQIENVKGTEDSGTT
# B1: S51E (designed binder)
# chain: MTLQELLREEALRRAEAEAFRYALELLAEKFPEQKEYLLDLAEEIESQIRELSGVDVEDVRKFLDKEWAWVKELLAEHPAELAEVEAARAARLAELRAEVEAKVAA
# B2: F31L (designed binder)
# chain: B1 chain with F31L, E51S
# B3: L74K (designed binder)
# chain: B1 chain with E51S, L74K
# B4: D40I (designed binder)
# chain: B1 chain with D40I, E51S
# B5: L6D (designed binder)
# chain: B1 chain with L6D, E51S
# B6: A19H (designed binder)
# chain: B1 chain with A19H, E51S
# B7: Y37Q (designed binder)
# chain: B1 chain with Y37Q, E51S
# B8: M1T (designed binder)
# chain: B1 chain with M1T, E51S
# B9: R50Q (designed binder)
# chain: B1 chain with R50Q, E51S
# B10: L64I (designed binder)
# chain: B1 chain with E51S, L64I
# B11: E10R (designed binder)
# chain: B1 chain with E10R, E51S
# B12: A28W (designed binder)
# chain: B1 chain with A28W, E51S
# B13: A106Q (designed binder)
# chain: B1 chain with E51S, A106Q
# B14: V60D (designed binder)
# chain: B1 chain with E51S, V60D
# B15: A83V (designed binder)
# chain: B1 chain with E51S, A83V
# B16: D56E (designed binder)
# chain: B1 chain with E51S, D56E
# B17: E25L (designed binder)
# chain: B1 chain with E25L, E51S
# B18: A42K (designed binder)
# chain: B1 chain with A42K, E51S
# B19: G54C (designed binder)
# chain: B1 chain with E51S, G54C
# B20: P79F (designed binder)
# chain: B1 chain with E51S, P79F
# B21: V71S (designed binder)
# chain: B1 chain with E51S, V71S
# B22: A98I (designed binder)
# chain: B1 chain with E51S, A98I
# B23: L7K (designed binder)
# chain: B1 chain with L7K, E51S
# B24: A83R (designed binder)
# chain: B1 chain with E51S, A83R
# B25: I45K (designed binder)
# chain: B1 chain with I45K, E51S
# B26: A19W (designed binder)
# chain: B1 chain with A19W, E51S
# B27: A87V (designed binder)
# chain: B1 chain with E51S, A87V
# B28: L24T (designed binder)
# chain: B1 chain with L24T, E51S
# B29: A83N (designed binder)
# chain: B1 chain with E51S, A83N
# B30: V57Q (designed binder)
# chain: B1 chain with E51S, V57Q
# B31: L96N (designed binder)
# chain: B1 chain with E51S, L96N
# B32: P79E (designed binder)
# chain: B1 chain with E51S, P79E
# B33: L64M (designed binder)
# chain: B1 chain with E51S, L64M
# B34: A42N (designed binder)
# chain: B1 chain with A42N, E51S
# B35: Y37H (designed binder)
# chain: B1 chain with Y37H, E51S
# B36: A76P (designed binder)
# chain: B1 chain with E51S, A76P
# B37: A94D (designed binder)
# chain: B1 chain with E51S, A94D
# B38: Q4R (designed binder)
# chain: B1 chain with Q4R, E51S
# B39: A69V (designed binder)
# chain: B1 chain with E51S, A69V
# B40: L39V (designed binder)
# chain: B1 chain with L39V, E51S
# B41: L38E (designed binder)
# chain: B1 chain with L38E, E51S
# B42: K72L (designed binder)
# chain: B1 chain with E51S, K72L
# B43: L41P (designed binder)
# chain: B1 chain with L41P, E51S
# Molecular target: T1, TNFR1
# Assay: yeast display SC50
row,apparent Kd (screen) [nM],Binder
1,2.05,B1
2,0.869,B2
3,13.8,B3
4,13.8,B4
5,1.27,B5
6,0.718,B6
7,8.56,B7
8,0.49,B8
9,0.49,B9
10,1.16,B10
11,10.4,B11
12,10.4,B12
13,0.142,B13
14,1.05,B14
15,0.718,B15
16,0.593,B16
17,0.539,B17
18,3.99,B18
19,24.4,B19
20,0.653,B20
21,2.48,B21
22,0.653,B22

row,apparent Kd (screen) [nM],Binder
1,16.7,B23
2,0.49,B24
3,3.99,B25
4,9.41,B26
5,0.539,B27
6,0.446,B28
7,0.653,B29
8,0.869,B30
9,0.446,B31
10,0.446,B32
11,0.653,B33
12,0.869,B34
13,11.4,B35
14,2.05,B36
15,0.593,B37
16,0.49,B38
17,0.653,B39
18,0.653,B40
19,10.4,B41
20,0.79,B42
21,1.27,B43
